Like-named read-outs stand apart in the source and are kept apart here.

The results in this text go back to publication PMC2779236 (The Journal of Cell Biology, 2009).

Data set [1] concerns the target rat CEACAM1 D(2–4)-His ectodomain (rat). The experiment in a line: cross-linking.
Data set [2] deals with the molecule itself. Briefly: molecular electron tomography.
Data set [3] concerns the target T1, rat CEACAM1 D(1–4)-Fc fusion protein (rat, UniProt P16573 35-425).
T1 sequence (looked up): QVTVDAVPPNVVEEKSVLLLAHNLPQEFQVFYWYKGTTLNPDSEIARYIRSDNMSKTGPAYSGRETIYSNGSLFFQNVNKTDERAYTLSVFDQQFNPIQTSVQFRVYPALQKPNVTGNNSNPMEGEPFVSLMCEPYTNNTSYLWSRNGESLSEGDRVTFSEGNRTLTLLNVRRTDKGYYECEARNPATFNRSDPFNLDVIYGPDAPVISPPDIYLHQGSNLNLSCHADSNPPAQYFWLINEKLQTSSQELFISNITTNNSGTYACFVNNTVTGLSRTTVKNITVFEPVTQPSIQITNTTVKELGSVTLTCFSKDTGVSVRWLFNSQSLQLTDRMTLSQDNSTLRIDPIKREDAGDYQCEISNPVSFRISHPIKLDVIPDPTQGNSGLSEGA
Briefly: SPR. On the technique in general: SPR reads the build-up and loss of mass on a sensor chip optically.

Data set [4] deals with the molecule itself. The experiment in a line: molecular electron tomography. This is another data set of the same source.

As for “rat CEACAM1 D(2–4)-His ectodomain (domain or fragment)”, the fold lower percentage of cross-linked dimers than D(1–4) in data set [1] was 4 fold lower.

B1: rat CEACAM1 D(1–4)-His ectodomain (domain or fragment, UniProt P16573 35-425, looked up)
chain: T1 sequence (looked up)
modifications: glycosylated (polydisperse, varying degrees of glycosylation; average molecular mass 81 kD)
B1: in data set [2], the “KD monomer/A-dimer” value was 260 µM and the “KD monomer/C-dimer” value is 72.1 µM. In data set [3], this molecule showed an equilibrium dissociation constant (Kd) of 11.2 µM, a koff of 0.508 ± 0.0078 s⁻¹ and an association rate constant (kon) of 45300 ± 3600 M⁻¹ s⁻¹. Moreover, in data set [4], the “KD monomer/A-dimer” value was found to be 113 µM and the “KD monomer/C-dimer” value came to 43.8 µM.

As a reminder, the Kd is the constant that tells how readily two partners part at equilibrium. As a reminder, the koff is the first-order rate constant of dissociation. Read a high koff as fast dissociation. One may read the kon as the second-order rate constant of association. The low end stands for slower complex formation, the high end for faster complex formation.
